From a protein production outcome set (Wang et al. 2014)

Experiment: label from the status in PepcDB records

Sequence	protein production
MTPTQNVPEDRIQIGQLRSAYGLNGWLWVYSNTEPMSNMFDYLPWFIETKAGWQTVDVKRWKPHGKGLVVSLKNVSDRNAAESLIGSTIWVAKSQLPKTDVDEYYWSDLKGLTVLGLDEEEQEVNLGQIHELFETGANDVMVVRATADSVDAEERMIPWHKDVVQRVDLEAGRIYVNWGVDYLEHHHHHH	not failed
MTPYQGEPLSLNFQDVEVRAVLQVLADYAGVNLVASDAVQGSVTLRLQDVPWDQALDLVLRSKGLSRRQEGNVLLVAPAAEFAAQSADARVSQALDAHLQPLRRELLPIHHAKAADLAQLLLAGLEGDGIPPASLSVDERTNTLVVHLPADRLAEMRQLVAQLDVPVRQVAIEARIVEANVDYEKSLGVRWGGPLYGEKLRPGKELFVDLGLERAGSSIGLGLLRGDVLLDLELSAMEKSGNGEIISQPKVVTADKETARILKGTEVPYQETSQSGATSVSFREASLSLEVTPQITPDNKVIMTVRVTKDEPDYVNALNNVPPIRKNEVNAKVRVADGETIVIGGVYSTSQNNVVDKVPFFGDLPYVGRLFRRDALQEKKSELLVFLTPRIMSDQAIAVSRLEHHHHHH	failed
MTPYTEVELTLIQYVLVVVSGFIIGLILGLIGGGGSILAVPLLLYFVGLGNDSSSFGNYSNITHLVLGTSALAVGLNAYINSFIHWRKGNVKVFEGVVFTIPGVIGSILGAYFGYLTTGNLILIMFGIVMILIGLRMIKSKCKEGSNETKGSGDTGVVKSKDRINIRIIYTGFLVGLASGFLGIGGGFLIVPALLFSTSMSIISAIGTSLISVGTFGLSTALTYASYGEIDYILSLILLAGGVGGGYIGTLLASKSPRSTLRKVFGVVLIVVAIYIIYRNLLL	failed
MTQAATILRTGRKFDQVLRGAREVFMSDGFEGANVDDIARAAGVSKATLYSYFPDKRLLFVEVAQTECQLMAERILSMIDEDRPVREVLTITATQLVAFLISDFAQQVFRICLAERERFPELARAFYAAGPENGQRQICEYLEKAVTKGELVIADIPMAAEQFSELCKTRLWTRAVFGIQTRFTQAEIDEVALAAVDTFLARYGA	failed
MTQDNASGDQVSKQHKAFLRKLYLAHLMDDARHNLLSLGKLTGMPRRTLQDAIASFADIGIEVEFVQDGERHNAGYYRIRTWGPISSAWMDTHVDEVKSLLGVDDAVGQATAGNGA	not failed
MTQETALGAALKSAVQTMSKKKQTEMIADHIYGKYDVFKRFKPLALGIDQDLIAALPQYDAALIARVLANHCRRPRYLKALARGGKRFDLNNRFKGEVTPEEQAIAQNHPFVQQALQQQSAQAAAETLSVEAEAAESSAAE	not failed
MTQHLTIAQTYLAAWNEEDNERRRHLVGQAWAENTRYVDPLMQGEGQQGIAAMIEAARQKFPGYRFVLAGTPDGHGNFTRFSWRLISPDGDDVAGGTDVVSLNTEGRIDNVVGFLDGAVS	not failed
MTQIARISDTGTERRLQAERLIGAKALQEAQALRFNVFSGEFNAKLKGAELGLDMDDYDVHCSHIGVRDLNTGRLVATTRLLDHQAANSLGRFYSEEEFSLHGLVQLKGPILEIGRTCVDPAYRNGGTIAVLWGELAEVLNQGGYSYLMGCASIPMQDGGVQAQAIMQRLRERYLCTEHLRAEPKNPLPSLDIPSNVIAEMPPLLKAYMRLGAKICGEPCWDEDFQVADVFILLKRDELCPRYARHFKAAV	failed
MTQKVALIGFGGVAQGFIQILRERGEELPEHIQVVSITDWRRGAVHDPNGLDLDFIAKIIETDGTFEHYPERSGVIKGWNSFETIQQTNADTIVEVTFTDVLTGQPAIDHCKEALRLGKHVVTTNKGPIAVAYQELKELADANGVQLLYEGTVMSGTPALRLPEHTLIGNNIQEVKGILNGTTNYILTEMERGKTFEQALQDAQTLGYAEADPTSDVEGYDVLYKVVILANVMMGIPLKPSDVERVGISHLTPRDIKDAHSAGERWKLIGRVKKEGERTMATVRPERLPLTDPLANINGAINAITYECDISGPITLIGAGAGVKETGFALLIDLLHVNRLGE	failed
MTQLDTWLANTKPLIPVIVIDDLVHAIPMAKALVAGGVHLLEVTLRTEAGLAAISAIKKAVPEAIVGAGTVCTADDFQKAIDAGAQFIVSPGLTPELIEKAKQVKLDGQWQGVFLPGVATASEVMIAAQAGITQLKCFPASAIGGAKLLKAWSGPFPDIQFCPTGGISKDNYKEYLGLPNVICAGGSWLTESKLLIEGDWNEVTRRASEIVKLSDI	not failed
MTQLELLLERIIDRVNVNLRHQKFDVGDYVRRQTPHLHYSKFYAFYGLSADDPVHFHFKNSSLAGSYLLGRVNVLHSALYKSDIRGDELKRKGQHFVCDGKMIPLHDDEVITIKDSFLNKTLVHSNSHDPESPEEFTIRNTVAMPYANIHGSLTEGSFIGSFATVDLSTIHNSVVRYFSYVQTGELVGKCVEPGQIWIKSGDELEFHYSFDKAILDKYISQEAGSCPTGVLMEFVEVRQEDFEEVFASGHMASGAGSASGASVSGYAVIKGDTVIGENVLVSQRAYLDNAWMGKGSNAQENCYIINSRLERNCVTAHGGKIINAHLGDMIFTGFNSFLQGSESSPLKIGDGCVVMPHTIIDLEEPLEIPAGHLVWGYIRNKADLAAHSISFEEFAKVDGEVTMGRMTFRGKGGPFLDSFKKRIKRILSENGAFFDGSEGTGHAQKGKNFTFNIIQPYQDGDPRGMYPTILIQPNNGS	not failed
MTQQTDLQSKTNIDPLAMNDSFLAAADALAVDPMFGIPANVREVIARRGNATRLVILGTKGFGAHLMNVRHERPCEVIAAVDDFRYHSGELYYGLPIISTDRFTELATHDRDLVALNTCRYDGPKRFFDQICRTHGIPHLNFEQAVRAFGLQGNVDYRVDDWGADIVRNIPAFQTLAQRLADDYSVQTLYAVLNFHLTCEPEYYHEVERPYSTLYFRSGLLRFSDSEKMVDCGASIGESLAGLIGVTKGKFERVWMIEPDRINLQTLQNVLRRYTDTNFASRITVHGCGAGENTIRVPFNHEGGHGGFVKPADADHEPADLIDVRPIDDIIDDAPTFIKMDIEGSELSALKGARRAISEHKPKLAISAYHRSTDLLDLTNYILSIRPDYQIGLRHHTPDRWDTCLYFY	not failed
MTQRRAMLILHGKQSLNEDVRDAVADKRKQGWELDVRLTWEAGDAQRLVNEALAAGHRHIVAGGGDGTLRDIAEALALAATKASLTILPLGTANDFARAAGVPLDVSKALQLMDVAPRAVDLGEVGGKLFLNMATGGFGSQVTANTSEDLKKVLGGAAYLFTGLTRFSELHAAHGELTGPDFHWRGDLLALGIGNGRQAGGGHELCPTALADDGLLDISILPAPQEVVGTLRSLLEGGLGIDNMFIRARLPWVELKSAQGLDINLDGEPLSGEDLRFVARPGALQVHLPANSPVLGSTPLLNRPD	not failed
MTQSLFDFSAYFKFFIGLFALVNPVGIIPVFISMTSYQPAAVRNKTNLTANLSVAIILLTSLFLGDGILQIFGISIDSFRIAGGILVVTIAMSMISGKLGEDKQNKQEKSETAVRESIGVVPLALPLMAGPGAISSTIVWGTRYHSWVHLVGFSLAIAVFALCCWGIFRMAPWLVRLLGQTGINVITRIMGLLLMALGIEFIVTGIKALFPGLLS	failed
MTQSPDITAKSWAMVATLGFVWGGTFLINELALEGITPFWLAAGRVCFGALLSTLVWRAMGGRLFSAPLSGSERLSLVIIALLSSAVPFSLIAWGQQYVTAGFTGVSMASIALMVLPLAHFFVPGERMTWRRALGFAIGFAGVALLMGAQAFESSGAALELPGRLACLAATACYAVASILMRRLPAVDPMGLSTVLLLIGVVAVLPMAWIAEGPPPSTDLRTLGLIVFLGMVPTAAANLLRVTLIRSAGPVFMSLTNYQVPIWSVLLGAALLGEPLPPVLLWSLLLILGGVGLSQYGALRRLFTRQ	failed
MTQTQSLALYTVAILVGALTGGSLPLLGRVGRSDIGLSFSAGVMLGAAFFHMLPEAVEESGAGILPFVLVGFLLLFLLERFVLVHVCAEPGPNARLSQAAPLPAGIEAGHGHDHHHHGHAHVATGGALALEDDGTGCAVHTTLGLAAFLGMSAHTLVDGFALGAASGQAELGLLVFLAILAHKIPNSFSLSAILRAEGYSRGRALAMNAVFALMVPVGAGIYLVLRELVRVETFTAAALAASAGTFLHLSLSDILPDLHRRGGSKWVLSGALLAGLAVMWGLRALNHAH	failed
MTQTVKLDILSDPICPWCYIGKTQLDKALAAIPDHPFVIEWHPFQLNPDMAPEGMDRREYLERKFGGKEGAVRAYAPVVEHAEKAGLAIDFEAMQRTPNTLDAHRLIHWAGVEGKQTEAVDALFAAYFTEGRDIGDAEVLADIADSIGMDAAVVLKLLKSDADRDDIAKRDSHSREMGVSSVPTFIVANQHAVPGAQPPELWEQVIREIMSQIETTSA	not failed
MTQWASWKQAIVSLAMLVSFSLFGQQNVQTPPEVVQARFIGNETCIDCHQVEVEAWQGSHHDMAMRHADSESVLGNFDNQAVEHQGKANRFYRKGDEYWVNIQGPDGQWHDYKISYTFGWVPLQQYMVEFDDGRIQLIPFAWDSRSVEQGGQRWFHLYPDTTTTDEFYWTNTGQNWNFMCADCHSTNLKKNYDAQSNTYQTTWSEINVSCEACHGPASLHVEMAKQAKQNGMPIATANHYGFSRDLSAAVKEWVYKEGHSTLQPKDIVPTNQVQTCAQCHSRRTQLNEEADHVKGAFLDKYRLSLITPELYYHDGQIYDEDYVYGSFLQSAMAEKGVTCTNCHDPHSAQLKIPEEAVCAQCHVASDYLPENHTFHQANTEASKCTTCHMPETTYMQVDPRRDHSWHVPRPDLSKHINTPNVCTACHDDKDAKWADEQIGQWFPKSKYRNTQHFSVAFYADAIGHRGGSDALAYTAQDSSISDIIRASALERMAGNTGQNTLVALARAVKHENEMIRLGAVAGSAGYDFSDRWQILQPLLSDPVLSVRTEAAAALVSHYGEMNPLQRERIQKPLDEYMDIQRFNADRGFGRTNLANVYRSLGEASKAIELYQQAIDIEPYFENSYVNLADMYRRQGDEAKAVQILNAGMKAQPKSSSLPYSAGLALLRQGNSKQANQYLKQAAESAKDNAQYWYVYGLALEKSDVLEASKALNKAFEVGGDPRHLYAQCEVLARNYRQGGVAFAFEQCTKQLGAHAPEEVIQQLKATVTTKK	failed
MTRAKDRLSAVQVKQSPAGKYADGGGLWLVKSSKDTGKWVLRAVVHGRRREMGLGSVSDVGLAEARKSADKWRTVVRAGGDPIKERARQKREAARNLHLLKHVAEDCFDAIKGNLRGQGKAGRWFSPLELHVLPKLGKVPVADLDQVDIRDTLKPLRDTKFETMRKALNRLDMVVRHAAALGLDVDTQVVDKAKALIGASQHKAVNIPAMPWHEVPGFYQSLSVGSVTHLALRLLILTGVRSRPLRFLRVDHIAGDVWTIPADMMKGREGATGDFRVPLSKEALAVIEQAKRHARDGFLFPSLRRGVVSDMTLSRYMERRKLTARPHGFRSSLRDWLAECTDAPHEVAETVLGHKVGGAVERAYRRTDFIDQRAKLMERWADHCKVVQLVSAV	failed
MTRDLAPALQALSPLLGSWAGRGAGKYPTIRPFEYLEEVVFAHVGKPFLTYTQQTRAVADGKPLHSETGYLRVCRPGCVELVLAHPSGITEIEVGTYSVTGDVIELELSTRADGSIGLAPTAKEVTALDRSYRIDGDELSYSLQMRAVGQPLQDHLAAVLHRQR	not failed
MTRKQMKTLVNRLFIISTFLLTSVQSYANFIDISEQQINQYLATKLTEKFRMQDQIGIPGLFQLNYHLHNLTTQIGRTDANKVSLSGIIDGVLLLKGKSYDAQLNLNIDTTPYYDTKTGKLYLKDIRLLNYSASPEKYQDKLQAFLPLLVDGLSKMLNNTPIYTLDENKTQEALLKKFGKAIVIEQGKLSLQTALF	failed
